Patent US20030224487A1
Each block holds one molecule with its values, some of them ahead of it.

Assays:
[1] = biological target: human OncostatinM receptor beta (OSMRbeta), full length, on transfected cells (human); assay: flow cytometry (SA-PE), BHK-OSMRbeta cells, ligand 0.0 µg/mL (no ligand, background)
[2] = biological target: human zcytor17 and OSMRbeta co-expressed on transfected cells (human); assay: flow cytometry (SA-PE), BAF3-C17 + OSMRbeta cells, ligand 3.33 µg/mL
[3] = biological target: human zcytor17 receptor, full length, on transfected cells (human); assay: flow cytometry (SA-PE), BAF3-C17 cells, ligand 1.0 ng/mL
[4] = biological target: human zcytor17 receptor, full length, on transfected cells (human); assay: flow cytometry (SA-PE), BAF3-C17 cells, ligand 10.0 ng/mL
[5] = biological target: human zcytor17 receptor, full length, on transfected cells (human); assay: flow cytometry (SA-PE), BAF3-C17 cells, ligand 0.0 ng/mL (no ligand, background)
[6] = biological target: human zcytor17 receptor, full length, on transfected cells (human); assay: flow cytometry (SA-PE), BHK-C17 cells, ligand 0.00001 µg/mL
[7] = biological target: human zcytor17 receptor, full length, on transfected cells (human); assay: flow cytometry (SA-PE), BHK-C17 cells, ligand 2.0 µg/mL
[8] = biological target: human zcytor17 and OSMRbeta co-expressed on transfected cells (human); assay: flow cytometry (SA-PE), BHK C17 + OSMRbeta cells, ligand 0.001 µg/mL
[9] = biological target: human zcytor17 and OSMRbeta co-expressed on transfected cells (human); assay: flow cytometry (SA-PE), BAF3-C17 + OSMRbeta cells, ligand 1.11 µg/mL
[10] = biological target: human zcytor17 receptor, full length, on transfected cells (human); assay: flow cytometry (SA-PE), BHK-C17 cells, ligand 0.010 µg/mL
[11] = biological target: human zcytor17 receptor, full length, on transfected cells (human); assay: flow cytometry (SA-PE), BHK-C17 cells, ligand 0.0001 µg/mL
[12] = biological target: human OncostatinM receptor beta (OSMRbeta), full length, on transfected cells (human); assay: flow cytometry (SA-PE), BHK-OSMRbeta cells, ligand 2.0 µg/mL (background level; no binding)
[13] = biological target: human zcytor17 and OSMRbeta co-expressed on transfected cells (human); assay: flow cytometry (SA-PE), BAF3-C17 + OSMRbeta cells, ligand 0.37 µg/mL
[14] = biological target: human zcytor17 and OSMRbeta co-expressed on transfected cells (human); assay: flow cytometry (SA-PE), BAF3-C17 + OSMRbeta cells, ligand 0.00 µg/mL (no ligand, background)
[15] = biological target: human zcytor17 and OSMRbeta co-expressed on transfected cells (human); assay: flow cytometry (SA-PE), BHK C17 + OSMRbeta cells, ligand 0.0001 µg/mL
[16] = biological target: human OncostatinM receptor beta (OSMRbeta), full length, on transfected cells (human); assay: flow cytometry (SA-PE), BAF3-OSMRbeta cells, ligand 0.00 µg/mL (no ligand, background)
[17] = biological target: human zcytor17 and OSMRbeta co-expressed on transfected cells (human); assay: flow cytometry (SA-PE), BHK C17 + OSMRbeta cells, ligand 0.0 µg/mL (no ligand, background)
[18] = biological target: human zcytor17 and OSMRbeta co-expressed on transfected cells (human); assay: flow cytometry (SA-PE), BAF3-C17 + OSMRbeta cells, ligand 0.12 µg/mL
[19] = biological target: human zcytor17 receptor, full length, on transfected cells (human); assay: flow cytometry (SA-PE), BHK-C17 cells, ligand 0.001 µg/mL
[20] = biological target: human zcytor17 receptor, full length, on transfected cells (human); assay: flow cytometry (SA-PE), BHK-C17 cells, ligand 0.000001 µg/mL
[21] = biological target: human zcytor17 and OSMRbeta co-expressed on transfected cells (human); assay: flow cytometry (SA-PE), BHK C17 + OSMRbeta cells, ligand 0.000001 µg/mL
[22] = biological target: human zcytor17 and OSMRbeta co-expressed on transfected cells (human); assay: flow cytometry (SA-PE), BAF3-C17 + OSMRbeta cells, ligand 10.0 µg/mL
[23] = biological target: human zcytor17 receptor, full length, on transfected cells (human); assay: flow cytometry (SA-PE), BHK-C17 cells, ligand 0.0 µg/mL (no ligand, background)
[24] = biological target: human OncostatinM receptor beta (OSMRbeta), full length, on transfected cells (human); assay: flow cytometry (SA-PE), BAF3-OSMRbeta cells, ligand 3.33 µg/mL (background level; no binding)
[25] = biological target: human zcytor17 and OSMRbeta co-expressed on transfected cells (human); assay: flow cytometry (SA-PE), BHK C17 + OSMRbeta cells, ligand 0.010 µg/mL
[26] = biological target: human zcytor17 and OSMRbeta co-expressed on transfected cells (human); assay: flow cytometry (SA-PE), BHK C17 + OSMRbeta cells, ligand 0.00001 µg/mL
[27] = biological target: human OncostatinM receptor beta (OSMRbeta), full length, on transfected cells (human); assay: flow cytometry (SA-PE), BAF3-OSMRbeta cells, ligand 0.37 µg/mL (background level; no binding)
[28] = biological target: human OncostatinM receptor beta (OSMRbeta), full length, on transfected cells (human); assay: flow cytometry (SA-PE), BAF3-OSMRbeta cells, ligand 10.0 µg/mL (background level; no binding)
[29] = biological target: human zcytor17 receptor, full length, on transfected cells (human); assay: flow cytometry (SA-PE), BAF3-C17 cells, ligand 100.0 ng/mL
[30] = biological target: human OncostatinM receptor beta (OSMRbeta), full length, on transfected cells (human); assay: flow cytometry (SA-PE), BAF3-OSMRbeta cells, ligand 1.11 µg/mL (background level; no binding)
[31] = biological target: human OncostatinM receptor beta (OSMRbeta), full length, on transfected cells (human); assay: flow cytometry (SA-PE), BAF3-OSMRbeta cells, ligand 0.04 µg/mL (background level; no binding)
[32] = biological target: human zcytor17 and OSMRbeta co-expressed on transfected cells (human); assay: flow cytometry (SA-PE), BHK C17 + OSMRbeta cells, ligand 2.0 µg/mL
[33] = biological target: human OncostatinM receptor beta (OSMRbeta), full length, on transfected cells (human); assay: flow cytometry (SA-PE), BAF3-OSMRbeta cells, ligand 0.12 µg/mL (background level; no binding)
[34] = biological target: human zcytor17 receptor, full length, on transfected cells (human); assay: flow cytometry (SA-PE), BHK-C17 cells, ligand 0.100 µg/mL
[35] = biological target: human zcytor17 and OSMRbeta co-expressed on transfected cells (human); assay: flow cytometry (SA-PE), BHK C17 + OSMRbeta cells, ligand 0.100 µg/mL
[36] = biological target: human zcytor17 and OSMRbeta co-expressed on transfected cells (human); assay: flow cytometry (SA-PE), BAF3-C17 + OSMRbeta cells, ligand 0.04 µg/mL
[37] = biological target: human zcytor17, OSMRbeta and WSX-1 co-expressed on transfected cells (human); assay: cell-based or functional assay
[38] = biological target: human zcytor17 and OSMRbeta co-expressed on transfected cells (human); assay: cell-based or functional assay

mean fluorescent intensity (MFI) [1]: 0 | mean fluorescent intensity (MFI) [2]: 508 | mean fluorescent intensity (MFI) [3]: 17 | mean fluorescent intensity (MFI) [4]: 72 | mean fluorescent intensity (MFI) [5]: 7 | mean fluorescent intensity (MFI) [6]: 15 | mean fluorescent intensity (MFI) [7]: 3030 | mean fluorescent intensity (MFI) [8]: 53 | mean fluorescent intensity (MFI) [9]: 489 | mean fluorescent intensity (MFI) [10]: 244 | mean fluorescent intensity (MFI) [11]: 16 | mean fluorescent intensity (MFI) [12]: 13 | mean fluorescent intensity (MFI) [13]: 441 | mean fluorescent intensity (MFI) [14]: 7 | mean fluorescent intensity (MFI) [15]: 17 | mean fluorescent intensity (MFI) [16]: 11 | mean fluorescent intensity (MFI) [17]: 13 | mean fluorescent intensity (MFI) [18]: 364 | mean fluorescent intensity (MFI) [19]: 39 | mean fluorescent intensity (MFI) [20]: 14 | mean fluorescent intensity (MFI) [21]: 14 | mean fluorescent intensity (MFI) [22]: 531 | mean fluorescent intensity (MFI) [23]: 15 | mean fluorescent intensity (MFI) [24]: 5 | mean fluorescent intensity (MFI) [25]: 328 | mean fluorescent intensity (MFI) [26]: 15 | mean fluorescent intensity (MFI) [27]: 5 | mean fluorescent intensity (MFI) [28]: 6 | mean fluorescent intensity (MFI) [29]: 347 | mean fluorescent intensity (MFI) [30]: 5 | mean fluorescent intensity (MFI) [31]: 5 | mean fluorescent intensity (MFI) [32]: 3780 | mean fluorescent intensity (MFI) [33]: 5 | mean fluorescent intensity (MFI) [34]: 1600 | mean fluorescent intensity (MFI) [35]: 2130 | mean fluorescent intensity (MFI) [36]: 247
Molecule: biotinylated human zcytor17L (ligand)

proliferation of BaF3/zcytor17/WSX-1/OSMRbeta cells (Alamar Blue) with conditioned media from activated CCRF-CEM and CCRF-HSB2 cells (fold over background) [37]: 10 | proliferation of BaF3/zcytor17/WSX-1/OSMRbeta cells (Alamar Blue) with conditioned media from activated CD3+ selected human cells (fold over background) [37]: 15 | proliferation of BaF3/zcytor17/OSMRbeta cells (Alamar Blue) with conditioned media from activated CCRF-CEM and CCRF-HSB2 cells (fold over background) [38]: 10 | proliferation of BaF3/zcytor17/OSMRbeta cells (Alamar Blue) with conditioned media from activated CD3+ selected human cells [38]: 15 fold
B1: human zcytor17lig (untagged, expressed from cDNA or native in conditioned media) (ligand)
chain: MASHSGPSTSVLFLFCCLGGWLASHTLPVRLLRPSDDVQKIVEELQSLSKMLLKDVEEEKGVLVSQNYTLPCLSPDAQPPNNIHSPAIRAYLKTIRQLDNKSVIDEIIEHLDKLIFQDAPETNISVPTDTHECKRFILTISQQFSECMDLALKSLTSGAQQATT
